T1: EsCas13d, nuclease-dead (Eubacterium siraeum, UniProt B0MS50, R295A;H300A;R849A;H854A)
T1 sequence: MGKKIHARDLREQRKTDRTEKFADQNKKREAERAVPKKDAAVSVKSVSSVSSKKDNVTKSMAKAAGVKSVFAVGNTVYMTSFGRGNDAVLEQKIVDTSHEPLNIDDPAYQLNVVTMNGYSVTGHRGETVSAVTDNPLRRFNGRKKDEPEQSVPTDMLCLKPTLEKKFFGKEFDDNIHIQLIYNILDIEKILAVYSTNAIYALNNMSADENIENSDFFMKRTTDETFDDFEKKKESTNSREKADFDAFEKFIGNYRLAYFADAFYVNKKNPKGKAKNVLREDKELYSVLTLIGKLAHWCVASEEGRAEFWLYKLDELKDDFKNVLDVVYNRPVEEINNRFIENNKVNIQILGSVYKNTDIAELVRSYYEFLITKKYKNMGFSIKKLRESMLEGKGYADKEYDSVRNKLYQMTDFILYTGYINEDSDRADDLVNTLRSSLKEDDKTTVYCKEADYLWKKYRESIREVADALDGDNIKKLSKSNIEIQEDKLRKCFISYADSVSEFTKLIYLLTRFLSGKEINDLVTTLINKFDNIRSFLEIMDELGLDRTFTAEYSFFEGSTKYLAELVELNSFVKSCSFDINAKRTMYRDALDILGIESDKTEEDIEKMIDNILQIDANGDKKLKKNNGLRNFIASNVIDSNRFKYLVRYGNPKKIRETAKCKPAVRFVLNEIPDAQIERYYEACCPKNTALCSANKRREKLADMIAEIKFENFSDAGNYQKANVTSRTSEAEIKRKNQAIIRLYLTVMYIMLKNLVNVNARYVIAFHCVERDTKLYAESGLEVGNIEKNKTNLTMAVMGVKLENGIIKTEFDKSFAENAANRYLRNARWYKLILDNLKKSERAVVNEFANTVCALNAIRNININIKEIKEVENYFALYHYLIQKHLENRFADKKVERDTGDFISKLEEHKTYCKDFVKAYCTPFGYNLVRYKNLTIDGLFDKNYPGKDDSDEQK


What follows are binders tested against T1, EsCas13d, nuclease-dead (assay: crRNA (strand 1, pre-loaded); Mg2+; 40 mM Tris-HCl pH 7.5, 150 mM NaCl, 6 mM MgCl2, 1 mM DTT, 0.1% Tween-20, 0.2 mg/ml BSA; 25 C; 10 min per concentration, then washed). Settings: tags: His6-TwinStrep-SUMO cleaved; N-terminal SNAP kept (SNAP-Surface 488); label: 3' end held by stalled T7 RNA polymerase.

Row | Binder | Kd [nM]
1 | target 1 insG 3' of 14,insG 3' of 9 (mixed) RNA 1: CACCCGUGCAAAAAUGCAGGGGUCUAAAACUGAGCGGAUAACCUCUCUAUGG RNA 2: GGGAAUGGAUCCACAUCUACGAAUUCGUACCAUAGAGAGGGUUAGUCCGCUCACCGAGAUCGGAAGAGCACACGU | 21.5 ± 1.5
2 | target 1 insC 3' of 15,insC 3' of 3 (mixed) RNA 1: CACCCGUGCAAAAAUGCAGGGGUCUAAAACUGAGCGGAUAACCUCUCUAUGG RNA 2: GGGAAUGGAUCCACAUCUACGAAUUCGUACCAUAGAGCAGGUUAUCCGCUCCACCGAGAUCGGAAGAGCACACGU | 17.3 ± 0.9
3 | target 1 G13A,U19C (mixed) RNA 1: CACCCGUGCAAAAAUGCAGGGGUCUAAAACUGAGCGGAUAACCUCUCUAUGG RNA 2: GGGAAUGGAUCCACAUCUACGAAUUCGUACCACAGAGAAGUUAUCCGCUCACCGAGAUCGGAAGAGCACACGU | 30 ± 6
4 | target 2 MT 5'PFS UUA 3'PFS CGC (mixed) RNA 1: CACCCGUGCAAAAUUGCAGGGGUCUAAAACCUUCUCCAAAUUGUUUCAUCCU RNA 2: GGGAAUGGAUCCACAUCUACGAAUUCUUAAGGAUGAAACAAUUUGGAGAAGCGCAGAUCGGAAGAGCACACGU | 48 ± 10
5 | target 2 MT 5'PFS UCU 3'PFS UAC (mixed) RNA 1: CACCCGUGCAAAAUUGCAGGGGUCUAAAACCUUCUCCAAAUUGUUUCAUCCU RNA 2: GGGAAUGGAUCCACAUCUACGAAUUCUCUAGGAUGAAACAAUUUGGAGAAGUACAGAUCGGAAGAGCACACGU | 12.8 ± 2.5
6 | target 2 MT 5'PFS ACC 3'PFS UAC (mixed) RNA 1: CACCCGUGCAAAAUUGCAGGGGUCUAAAACCUUCUCCAAAUUGUUUCAUCCU RNA 2: GGGAAUGGAUCCACAUCUACGAAUUCACCAGGAUGAAACAAUUUGGAGAAGUACAGAUCGGAAGAGCACACGU | 12 ± 5
7 | target 2 MT 5'PFS GGA 3'PFS UGU (mixed) RNA 1: CACCCGUGCAAAAUUGCAGGGGUCUAAAACCUUCUCCAAAUUGUUUCAUCCU RNA 2: GGGAAUGGAUCCACAUCUACGAAUUCGGAAGGAUGAAACAAUUUGGAGAAGUGUAGAUCGGAAGAGCACACGU | 16.4 ± 1.6
8 | target 2 MT 5'PFS UUA 3'PFS AGC (mixed) RNA 1: CACCCGUGCAAAAUUGCAGGGGUCUAAAACCUUCUCCAAAUUGUUUCAUCCU RNA 2: GGGAAUGGAUCCACAUCUACGAAUUCUUAAGGAUGAAACAAUUUGGAGAAGAGCAGAUCGGAAGAGCACACGU | 19.3 ± 2.2
9 | target 2 MT 5'PFS AGU 3'PFS ACG (mixed) RNA 1: CACCCGUGCAAAAUUGCAGGGGUCUAAAACCUUCUCCAAAUUGUUUCAUCCU RNA 2: GGGAAUGGAUCCACAUCUACGAAUUCAGUAGGAUGAAACAAUUUGGAGAAGACGAGAUCGGAAGAGCACACGU | 13.8 ± 1.7
10 | target 2 MT 5'PFS AGU 3'PFS ACU (mixed) RNA 1: CACCCGUGCAAAAUUGCAGGGGUCUAAAACCUUCUCCAAAUUGUUUCAUCCU RNA 2: GGGAAUGGAUCCACAUCUACGAAUUCAGUAGGAUGAAACAAUUUGGAGAAGACUAGAUCGGAAGAGCACACGU | 22 ± 7
11 | target 2 MT 5'PFS CGG 3'PFS CUU (mixed) RNA 1: CACCCGUGCAAAAUUGCAGGGGUCUAAAACCUUCUCCAAAUUGUUUCAUCCU RNA 2: GGGAAUGGAUCCACAUCUACGAAUUCCGGAGGAUGAAACAAUUUGGAGAAGCUUAGAUCGGAAGAGCACACGU | 6.6 ± 0.9
12 | target 2 MT 5'PFS GUG 3'PFS ACA (mixed) RNA 1: CACCCGUGCAAAAUUGCAGGGGUCUAAAACCUUCUCCAAAUUGUUUCAUCCU RNA 2: GGGAAUGGAUCCACAUCUACGAAUUCGUGAGGAUGAAACAAUUUGGAGAAGACAAGAUCGGAAGAGCACACGU | 10.3 ± 0.9
13 | target 2 MT 5'PFS UCU 3'PFS UAA (mixed) RNA 1: CACCCGUGCAAAAUUGCAGGGGUCUAAAACCUUCUCCAAAUUGUUUCAUCCU RNA 2: GGGAAUGGAUCCACAUCUACGAAUUCUCUAGGAUGAAACAAUUUGGAGAAGUAAAGAUCGGAAGAGCACACGU | 12.8 ± 3.2
14 | target 2 MT 5'PFS GUG 3'PFS ACG (mixed) RNA 1: CACCCGUGCAAAAUUGCAGGGGUCUAAAACCUUCUCCAAAUUGUUUCAUCCU RNA 2: GGGAAUGGAUCCACAUCUACGAAUUCGUGAGGAUGAAACAAUUUGGAGAAGACGAGAUCGGAAGAGCACACGU | 13.1 ± 0.8
15 | target 2 MT 5'PFS GUG 3'PFS ACC (mixed) RNA 1: CACCCGUGCAAAAUUGCAGGGGUCUAAAACCUUCUCCAAAUUGUUUCAUCCU RNA 2: GGGAAUGGAUCCACAUCUACGAAUUCGUGAGGAUGAAACAAUUUGGAGAAGACCAGAUCGGAAGAGCACACGU | 20.8 ± 2.1
16 | target 2 MT 5'PFS AAG 3'PFS UAC (mixed) RNA 1: CACCCGUGCAAAAUUGCAGGGGUCUAAAACCUUCUCCAAAUUGUUUCAUCCU RNA 2: GGGAAUGGAUCCACAUCUACGAAUUCAAGAGGAUGAAACAAUUUGGAGAAGUACAGAUCGGAAGAGCACACGU | 4.4 ± 0.5
17 | target 2 MT 5'PFS ACC 3'PFS UAG (mixed) RNA 1: CACCCGUGCAAAAUUGCAGGGGUCUAAAACCUUCUCCAAAUUGUUUCAUCCU RNA 2: GGGAAUGGAUCCACAUCUACGAAUUCACCAGGAUGAAACAAUUUGGAGAAGUAGAGAUCGGAAGAGCACACGU | 4.6 ± 0.8
18 | target 2 MT 5'PFS UUA 3'PFS AGG (mixed) RNA 1: CACCCGUGCAAAAUUGCAGGGGUCUAAAACCUUCUCCAAAUUGUUUCAUCCU RNA 2: GGGAAUGGAUCCACAUCUACGAAUUCUUAAGGAUGAAACAAUUUGGAGAAGAGGAGAUCGGAAGAGCACACGU | 23.1 ± 3
19 | target 2 MT 5'PFS ACG 3'PFS UCU (mixed) RNA 1: CACCCGUGCAAAAUUGCAGGGGUCUAAAACCUUCUCCAAAUUGUUUCAUCCU RNA 2: GGGAAUGGAUCCACAUCUACGAAUUCACGAGGAUGAAACAAUUUGGAGAAGUCUAGAUCGGAAGAGCACACGU | 23 ± 7
20 | target 2 MT 5'PFS ACC 3'PFS UAU (mixed) RNA 1: CACCCGUGCAAAAUUGCAGGGGUCUAAAACCUUCUCCAAAUUGUUUCAUCCU RNA 2: GGGAAUGGAUCCACAUCUACGAAUUCACCAGGAUGAAACAAUUUGGAGAAGUAUAGAUCGGAAGAGCACACGU | 6.5 ± 1.4
21 | target 2 MT 5'PFS GUG 3'PFS ACU (mixed) RNA 1: CACCCGUGCAAAAUUGCAGGGGUCUAAAACCUUCUCCAAAUUGUUUCAUCCU RNA 2: GGGAAUGGAUCCACAUCUACGAAUUCGUGAGGAUGAAACAAUUUGGAGAAGACUAGAUCGGAAGAGCACACGU | 12.9 ± 0.7
22 | target 2 MT 5'PFS CGG 3'PFS CUA (mixed) RNA 1: CACCCGUGCAAAAUUGCAGGGGUCUAAAACCUUCUCCAAAUUGUUUCAUCCU RNA 2: GGGAAUGGAUCCACAUCUACGAAUUCCGGAGGAUGAAACAAUUUGGAGAAGCUAAGAUCGGAAGAGCACACGU | 6.1 ± 0.8
23 | target 2 MT 5'PFS ACG 3'PFS UCC (mixed) RNA 1: CACCCGUGCAAAAUUGCAGGGGUCUAAAACCUUCUCCAAAUUGUUUCAUCCU RNA 2: GGGAAUGGAUCCACAUCUACGAAUUCACGAGGAUGAAACAAUUUGGAGAAGUCCAGAUCGGAAGAGCACACGU | 34 ± 15
24 | target 2 MT 5'PFS GCU 3'PFS AGC (mixed) RNA 1: CACCCGUGCAAAAUUGCAGGGGUCUAAAACCUUCUCCAAAUUGUUUCAUCCU RNA 2: GGGAAUGGAUCCACAUCUACGAAUUCGCUAGGAUGAAACAAUUUGGAGAAGAGCAGAUCGGAAGAGCACACGU | 7.8 ± 1.4
25 | target 2 MT 5'PFS GGA 3'PFS UGA (mixed) RNA 1: CACCCGUGCAAAAUUGCAGGGGUCUAAAACCUUCUCCAAAUUGUUUCAUCCU RNA 2: GGGAAUGGAUCCACAUCUACGAAUUCGGAAGGAUGAAACAAUUUGGAGAAGUGAAGAUCGGAAGAGCACACGU | 15.6 ± 3.1
26 | target 2 MT 5'PFS UUA 3'PFS CGG (mixed) RNA 1: CACCCGUGCAAAAUUGCAGGGGUCUAAAACCUUCUCCAAAUUGUUUCAUCCU RNA 2: GGGAAUGGAUCCACAUCUACGAAUUCUUAAGGAUGAAACAAUUUGGAGAAGCGGAGAUCGGAAGAGCACACGU | 20.9 ± 2.1
27 | target 2 MT 5'PFS UAG 3'PFS UAU (mixed) RNA 1: CACCCGUGCAAAAUUGCAGGGGUCUAAAACCUUCUCCAAAUUGUUUCAUCCU RNA 2: GGGAAUGGAUCCACAUCUACGAAUUCUAGAGGAUGAAACAAUUUGGAGAAGUAUAGAUCGGAAGAGCACACGU | 2.94 ± 0.19
28 | target 2 MT 5'PFS UUA 3'PFS AGA (mixed) RNA 1: CACCCGUGCAAAAUUGCAGGGGUCUAAAACCUUCUCCAAAUUGUUUCAUCCU RNA 2: GGGAAUGGAUCCACAUCUACGAAUUCUUAAGGAUGAAACAAUUUGGAGAAGAGAAGAUCGGAAGAGCACACGU | 19.4 ± 3.2

— paper PMC10786891, “Massively parallel profiling of RNA-targeting CRISPR-Cas13d”
